B1: TPL0674_03_F05 (scFv, V domains shown)
VH: EVQLVQSGAEVKKPGASVRVSCKASGYSITNYGISWVRQAPGQGLEWMGWINTYNGNTNYAQKFQGRVTMTRDTSISTAYMELSRLRSDDTAVYYCARDHPYRGMDVWGQGTLVTVSS
VL: SYELTQDPAVSVALGQTVRITCQGDSLRSYYASWYQQKPGQAPVLVIYGKNNRPSGIPDRFSGSSSGNTASLTITGAQAEDEADYYCNSRDSSGNHPHVVFGGGTKLTVL
notes: also called scFv TPL0674_03_F05
B2: TPL0674_03_A04 (scFv, V domains shown)
VH: QVQLVQSGSELKKPGASVKVSCKASGYTFTSYAMNWVRQAPGQGLEWMGWINTNTGNPTYAQGFTGRFVFSLDTSVSTAYLQISSLKAEDTAVYYCARDQGGDRHFGYWGQGTTVTVSS
VL: QSELTQPPSASGTPGQRVTISCSGSSSNIGSHRVNWYQQLPGTAPKLLIYSNYHRPAGVPDRFSASKSGTSASLAISGLQSEDEADYYCAAWDDSLNGYVFGTGTQLTVL
notes: also called scFv TPL0674_03_A04

Columns and labels:
[1] = target: T1, recombinant SMase from L. rufescens (Loxosceles rufescens, UniProt C0JB02); experiment: BLI; ForteBio Octet RED96, […]; 1:1 binding model, […]; triplicate; details: both partners purified
T1 construct: also called rLr; recombinant sphingomyelinase from Loxosceles rufescens; source: E. coli BL21(DE3), purified (HisPur Ni-NTA)

[2] = target: T2, recombinant SMase from H. lepturus (Hemiscorpius lepturus, UniProt A0A1L4BJ98); experiment: as above; details: both partners purified
T2 construct: also called rHl; recombinant sphingomyelinase from Hemiscorpius lepturus; source: E. coli BL21(DE3), purified (HisPur Ni-NTA)
T2 sequence (A0A1L4BJ98 whole entry, looked up): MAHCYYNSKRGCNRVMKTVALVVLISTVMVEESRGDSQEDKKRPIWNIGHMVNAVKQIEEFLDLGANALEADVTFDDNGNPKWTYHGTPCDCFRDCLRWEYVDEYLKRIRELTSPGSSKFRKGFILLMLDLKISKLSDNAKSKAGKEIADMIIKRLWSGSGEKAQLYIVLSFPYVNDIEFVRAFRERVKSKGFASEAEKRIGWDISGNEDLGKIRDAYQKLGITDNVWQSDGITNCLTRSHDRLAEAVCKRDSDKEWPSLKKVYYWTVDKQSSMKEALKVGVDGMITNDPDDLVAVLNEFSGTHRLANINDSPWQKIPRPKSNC

T1 sequence (C0JB02 whole entry, looked up): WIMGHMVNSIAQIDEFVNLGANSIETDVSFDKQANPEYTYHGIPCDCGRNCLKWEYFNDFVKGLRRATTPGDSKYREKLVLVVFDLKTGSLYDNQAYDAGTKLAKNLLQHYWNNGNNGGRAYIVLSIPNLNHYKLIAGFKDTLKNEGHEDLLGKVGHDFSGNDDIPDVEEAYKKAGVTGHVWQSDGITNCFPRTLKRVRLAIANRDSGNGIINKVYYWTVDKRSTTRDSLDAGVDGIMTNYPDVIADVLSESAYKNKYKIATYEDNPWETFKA

Binder | Kd [1] [nM] | Kd [2] [nM]
B1 | 80.4 | 51.6
B2 | 66.9 | 45.3

Source: publication PMC10868436, “Discovery of broadly‐neutralizing antibodies against brown recluse spider and Gadim scorpion sphingomyelinases using consensus toxins as antigens” (Protein Science : A Publication of the Protein Society, 2024)
